Molecular target: His-tagged Gins51 wild type (Thermococcus kodakaraensis)
Test: SPR

Kd: 230 nM
Substance: GAN mutant F55A/L57A (enzyme)
